In publication PMC8658920:

Target: heterochromatin protein HP1γ (UniProt Q13185)
Test: proximity labelling; PUB (proximity utilizing biotinylation): BAP-HP1γ co-expressed with BirA-HP1γ or, in a separate dish, with BirA-Tap54α; 4 h biotinylation time; MRM LC-MS/MS on Agilent nanoHPLC-Chip ion trap, Skyline; ratio of biotinylation level, experiment versus control

Sequence of heterochromatin protein HP1γ, Q13185 1-183 (natural protein; other documents disagree on this pair) (Q13185 whole entry): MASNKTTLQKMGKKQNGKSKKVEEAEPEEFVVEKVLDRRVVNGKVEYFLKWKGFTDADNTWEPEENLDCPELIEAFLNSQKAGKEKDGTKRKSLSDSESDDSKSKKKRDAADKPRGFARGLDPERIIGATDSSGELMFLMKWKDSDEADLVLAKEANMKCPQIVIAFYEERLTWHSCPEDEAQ

ratio of biotinylation level, experiment versus control BAP-HP1γ + BirA-Tap54α (4 h biotinylation time): 32
Substance: heterochromatin protein HP1γ, Q13185 1-183 (natural protein; other documents disagree on this pair)
